Source: article PMC11507893 (bioRxiv, 2024)
Positions count from the first letter of the chain named.

Columns and labels:
[1] = molecular target: T1, FLAG-tagged Mnl1 (Mnl1-FLAG) (S. cerevisiae, UniProt P38888 21-796); test: cryo-EM structure
T1 sequence (looked up): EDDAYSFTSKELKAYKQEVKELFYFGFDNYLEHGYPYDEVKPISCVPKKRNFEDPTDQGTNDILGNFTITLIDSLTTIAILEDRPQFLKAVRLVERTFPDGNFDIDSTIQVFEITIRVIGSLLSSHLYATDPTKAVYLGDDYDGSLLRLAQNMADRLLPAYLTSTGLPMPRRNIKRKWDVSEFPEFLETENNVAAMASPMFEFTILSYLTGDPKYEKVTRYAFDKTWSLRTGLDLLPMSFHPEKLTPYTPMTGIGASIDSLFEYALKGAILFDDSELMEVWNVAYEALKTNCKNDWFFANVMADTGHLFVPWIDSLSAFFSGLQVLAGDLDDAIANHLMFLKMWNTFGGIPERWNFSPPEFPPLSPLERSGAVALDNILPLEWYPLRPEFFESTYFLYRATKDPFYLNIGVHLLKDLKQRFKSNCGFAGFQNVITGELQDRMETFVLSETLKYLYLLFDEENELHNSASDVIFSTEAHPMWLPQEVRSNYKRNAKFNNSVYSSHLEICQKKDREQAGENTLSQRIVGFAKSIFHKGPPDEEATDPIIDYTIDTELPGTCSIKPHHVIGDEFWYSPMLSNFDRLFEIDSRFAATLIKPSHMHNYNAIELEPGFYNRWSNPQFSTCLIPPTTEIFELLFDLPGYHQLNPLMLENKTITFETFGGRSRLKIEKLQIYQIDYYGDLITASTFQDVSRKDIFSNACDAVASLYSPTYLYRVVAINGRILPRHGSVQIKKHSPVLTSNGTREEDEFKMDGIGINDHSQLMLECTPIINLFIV

[2] = molecular target: T2, Mnl1 mCTD mutant (L655N, F770Y, M772K), FLAG-tagged (S. cerevisiae, UniProt P38888 21-796, L655N | F770Y | M772K); test: co-IP + SEC
T2 sequence (looked up): T1 sequence (looked up) with L635N, F750Y, M752K

[3] = molecular target: T3, Mnl1(C579S), FLAG-tagged (S. cerevisiae, UniProt P38888 21-796, C579S); test: cross-linking
T3 sequence (looked up): T1 sequence (looked up) with C559S

[4] = molecular target: T4, Mnl1(C644S), FLAG-tagged (S. cerevisiae, UniProt P38888 21-796, C644S); test: cross-linking
T4 sequence (looked up): T1 sequence (looked up) with C624S

Measured: binding result

B1: protein disulfide isomerase (Pdi1) (enzyme, S. cerevisiae, UniProt P17967 29-522, looked up)
chain: PEDSAVVKLATDSFNEYIQSHDLVLAEFFAPWCGHCKNMAPEYVKAAETLVEKNITLAQIDCTENQDLCMEHNIPGFPSLKIFKNSDVNNSIDYEGPRTAEAIVQFMIKQSQPAVAVVADLPAYLANETFVTPVIVQSGKIDADFNATFYSMANKHFNDYDFVSAENADDDFKLSIYLPSAMDEPVVYNGKKADIADADVFEKWLQVEALPYFGEIDGSVFAQYVESGLPLGYLFYNDEEELEEYKPLFTELAKKNRGLMNFVSIDARKFGRHAGNLNMKEQFPLFAIHDMTEDLKYGLPQLSEEAFDELSDKIVLESKAIESLVKDFLKGDASPIVKSQEIFENQDSSVFQLVGKNHDEIVNDPKKDVLVLYYAPWCGHCKRLAPTYQELADTYANATSDVLIAKLDHTENDVRGVVIEGYPTIVLYPGGKKSESVVYQGSRSLDSLFDFIKENGHFDVDGKALYEEAQEKAAEEADADAELADEEDAIHDEL
binds: all assays above
